From US7507555B2, “Probe for detecting and quantifying lipid second messenger and method of detecting and quantifying lipid second messenger using the same” (Japan Science and Technology Agency, priority 2003, dated 2009) come the findings set out here.

The test system of test [1] is PDGFR. Briefly: Effect of PTP1B overexpression on PDGF-stimulated PIP3 increase in CHO-PDGFR cells. The class given is cell-based, Chinese hamster. To be noted: PTP1B overexpressed. An excerpt: For further dissecting the PIP3 dynamics in the endomembranes, protein tyrosine phosphatase-1B (PTP1B) was overexpressed in CHO-PDGFR cells by adenovirus-mediated gene transfer. The PTP1B is localized exclusively on the cytoplasmic surface of the ER (Frangioni, J. V., Beaham, P. H., Shifrin, V., Jost, C. A. and Neel, B. G. (1992) Cell, 68, 545-560). It has recently been reported that upon ligand stimulations, receptor tyrosine kinases, including PDGFR, are dephosphorylated and inactivated by the PTP1B on the cytoplasmic surface of the ER after the receptors activated at the cell surface were internalized by endocytosis (Haj, F. G., Verveer, P. J., Squire, A., Neel, B. G. and Bastiaens, P. I. H. (2002), Science, 295, 1708-1711).
The inventors expected the overexpressed PTP1B to selectively dephosphorylate the endocytosed PDGFR and to inhibit the recruitment and activation of PI3K by the PDGFR on the cytoplasmic surface of ER, without affecting the PDCFR in the plasma membrane.

The subject of test [2] is clathrin-mediated endocytosis of PDGFR. The test can be described thus: Effect of DynK44A expression on PIP3 increase in CHO-PDGFR cells. The class given is cell-based, Chinese hamster. The procedure:
To explore the molecular mechanism, which underlies the PIP3 increase in the endomembranes, the effect on the PIP3 increase of a dominant-negative mutant of dynamin (DynK44A), in which the lysine 44 is substituted by an alanine, was assessed.
The dynamin is a guanosine triphosphatase (GTPase) that controls the clathrin-mediated endocytosis (Qualmann, B., Kessels, M. M. and Kelly, R. B. (2000) J. Cell Biol., 150, F111-F116) of receptor tyrosine kinases, including PDGFR. DynK44A lacks the GTPase activity and inhibits a clathrin-mediated endocytosis of PDGFR.
The DynK44A was expressed in CHO-PDCFR cells by adenovirus-mediated gene transfer, the cells were stimulated with PDGF (50 ng/mL) and time course of CFP/YFP in endomembranes was measured as shown in FIG. 11. […] On the other hand, in the plasma membrane, the FRET response of Fllip-pm was immediately observed upon PDGF stimulation even in the presence of the DynK44A expression, as observed in the absence of the DynK44A expression (FIG. 12).

B1: PTP1B: protein tyrosine phosphatase-1B, overexpressed by adenovirus-mediated gene transfer (protein, UniProt P18031 1-435, looked up)
Tyrosine-protein phosphatase …: MEMEKEFEQIDKSGSWAAIYQDIRHEASDFPCRVAKLPKNKNRNRYRDVSPFDHSRIKLHQEDNDYINASLIKMEEAQRSYILTQGPLPNTCGHFWEMVWEQKSRGVVMLNRVMEKGSLKCAQYWPQKEEKEMIFEDTNLKLTLISEDIKSYYTVRQLELENLTTQETREILHFHYTTWPDFGVPESPASFLNFLFKVRESGSLSPEHGPVVVHCSAGIGRSGTFCLADTCLLLMDKRKDPSSVDIKKVLLEMRKFRMGLIQTADQLRFSYLAVIEGAKFIMGDSSVQDQWKELSHEDLEPPPEHIPPPPRPPKRILEPHNGKCREFFPNHQWVKEETQEDKDCPIKEEKGSPLNAAPYGIESMSQDTEVRSRVVGGSLRGAQAASPAKGEPSLPEKDEDHALSYWKPFLVNMCVATVLTAGAYLCYRFLFNSNT
With B1, in test [1] (Fllip-em, PDGF 50 ng/mL), the “PDGF-stimulated PIP3 increase in endomembranes” value was “completely lost”. Further, the “PIP3 increase in the plasma membrane upon PDGF stimulation” value in test [1] (monitored with Fllip-pm) is “not affected”.

B2: DynK44A: dominant-negative mutant of dynamin in which the lysine 44 is substituted by an alanine (protein, UniProt Q05193 1-864, looked up, variant K44A)
Dynamin-1: MGNRGMEDLIPLVNRLQDAFSAIGQNADLDLPQIAVVGGQSAGASSVLENFVGRDFLPRGSGIVTRRPLVLQLVNATTEYAEFLHCKGKKFTDFEEVRLEIEAETDRVTGTNKGISPVPINLRVYSPHVLNLTLVDLPGMTKVPVGDQPPDIEFQIRDMLMQFVTKENCLILAVSPANSDLANSDALKVAKEVDPQGQRTIGVITKLDLMDEGTDARDVLENKLLPLRRGYIGVVNRSQKDIDGKKDITAALAAERKFFLSHPSYRHLADRMGTPYLQKVLNQQLTNHIRDTLPGLRNKLQSQLLSIEKEVEEYKNFRPDDPARKTKALLQMVQQFAVDFEKRIEGSGDQIDTYELSGGARINRIFHERFPFELVKMEFDEKELRREISYAIKNIHGIRTGLFTPDMAFETIVKKQVKKIREPCLKCVDMVISELISTVRQCTKKLQQYPRLREEMERIVTTHIREREGRTKEQVMLLIDIELAYMNTNHEDFIGFANAQQRSNQMNKKKTSGNQDEILVIRKGWLTINNIGIMKGGSKEYWFVLTAENLSWYKDDEEKEKKYMLSVDNLKLRDVEKGFMSSKHIFALFNTEQRNVYKDYRQLELACETQEEVDSWKASFLRAGVYPERVGDKEKASETEENGSDSFMHSMDPQLERQVETIRNLVDSYMAIVNKTVRDLMPKTIMHLMINNTKEFIFSELLANLYSCGDQNTLMEESAEQAQRRDEMLRMYHALKEALSIIGDINTTTVSTPMPPPVDDSWLQVQSVPAGRRSPTSSPTPQRRAPAVPPARPGSRGPAPGPPPAGSALGGAPPVPSRPGASPDPFGPPPQVPSRPNRAPPGVPSRSGQASPSRPESPRPPFDL
Take B2: the “PIP3 increase in the endomembranes by insulin and epidermal growth factor” value in test [2] (DynK44A overexpression) is listed as “inhibited”. Further, the “PDGF-stimulated PIP3 increase in the endomembranes” value in test [2] (overexpression of DynK44A, PDGF 50 ng/mL) is “completely inhibited”. The “PDGF-stimulated PIP3 increase in the plasma membrane” value in test [2] (overexpression of DynK44A, PDGF 50 ng/mL, Fllip-pm) is on record as “not affected”.
